Tests used:
[1] = target: T1, His-tagged talin-head (talin 1–405 aa), N-tagged version (UniProt P26039 1-405); assay: BLI; Octet RED384; biotinylated MBP-LIMs immobilised on streptavidin sensor (biocytin quench); His-tagged talin head in solution at 20, 80, 320, 1250 and 5000 nM; PBS with 1% BSA, 0.1% Tween-20, 0.05% sodium azide; 27 °C, 1000 rpm; biotinylated free MBP sensor subtracted; apparent affinity; conditions: both partners purified
T1 construct: talin 1, residues 1–405 (head domain); also called TH; N-tagged talin; not shown: His tag, N-terminal, kept

[2] = target: T2, His-tagged talin-head (talin 1–405 aa), C-tagged version (UniProt P26039 1-405); assay: as above; conditions: both partners purified
T2 construct: talin 1, residues 1–405 (head domain); also called TH; C-tagged talin; not shown: His tag, C-terminal, kept
T2 sequence (P26039 1-405): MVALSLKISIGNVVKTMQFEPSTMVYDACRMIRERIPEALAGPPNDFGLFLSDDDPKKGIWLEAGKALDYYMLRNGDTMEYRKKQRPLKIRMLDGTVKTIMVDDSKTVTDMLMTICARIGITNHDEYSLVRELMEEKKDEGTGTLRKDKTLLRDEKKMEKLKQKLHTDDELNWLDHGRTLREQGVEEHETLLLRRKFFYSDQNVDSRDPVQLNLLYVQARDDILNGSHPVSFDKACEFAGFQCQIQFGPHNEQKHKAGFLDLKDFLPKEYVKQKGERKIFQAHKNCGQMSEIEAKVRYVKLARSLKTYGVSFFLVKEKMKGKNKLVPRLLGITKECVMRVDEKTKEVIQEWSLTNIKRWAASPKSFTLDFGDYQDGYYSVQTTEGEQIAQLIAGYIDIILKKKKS

T1 sequence (P26039 1-405): as above

B1: biotinylated MBP-LIMs (domain or fragment, human, UniProt P49023-2 317-557, looked up)
chain: ATVAKGVCGACKKPIAGQVVTAMGKTWHPEHFVCTHCQEEIGSRNFFERDGQPYCEKDYHNLFSPRCYYCNGPILDKVVTALDRTWHPEHFFCAQCGAFFGPEGFHEKDGKAYCRKDYFDMFAPKCGGCARAILENYISALNTLWHPECFVCRECFTPFVNGSFFEHDGQPYCEVHYHERRGSLCSGCQKPITGRCITAMAKKFHPEHFVCAFCLKQLNKGTFKEQNDKPYCQNCFLKLFC
modifications: biotin (EZ-Link NHS-PEG4-Biotin)
notes: paxillin LIM1-LIM4, human paxillin α; limits as told for the LIMs construct (from residue 317), the MBP constructs being 'analogously produced'; numbered according to P49023-2; also called MBP-tagged and biotinylated LIM domains (LIMs)
- Kd [1]: 720 nM
- Kd [2]: 770 nM
